For assay [1], the target named is T1, CD123-Fc (Sino Biological) (human, UniProt P26951 19-305).
T1 construct: Bought reagent; not shown: Fc of the bought fusion (detected with anti-human Fc, captured on AHC sensor)
T1 sequence: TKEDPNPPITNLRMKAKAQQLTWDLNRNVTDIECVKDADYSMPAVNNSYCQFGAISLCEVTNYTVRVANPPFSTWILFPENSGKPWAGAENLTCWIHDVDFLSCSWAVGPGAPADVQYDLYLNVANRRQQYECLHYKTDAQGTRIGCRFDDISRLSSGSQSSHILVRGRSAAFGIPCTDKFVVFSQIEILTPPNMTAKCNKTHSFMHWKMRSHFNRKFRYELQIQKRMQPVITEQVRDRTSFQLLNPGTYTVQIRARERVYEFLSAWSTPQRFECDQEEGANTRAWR
Briefly: ELISA of MBP fusions normalized for protein concentration, serial dilution. Here is the method:
(§1) Parent and mutated variant D domains were expressed as MBP fusions in E. coli (T7 Express, New England Biolabs) by either IPTG (isopropylthio-(3-galactoside) induction for 4 hours at 37° C. in Luria broth containing antibiotics and 0.2% glucose or through auto-induction for 16 hours at 30° C. using MagicMedia (Life Technologies). Post induction, cells were pelleted, washed and resuspended in “leak-out buffer” comprising 200 mM Tris pH 7.5 and 20 mM EDTA. After incubation at 30° C. for 16 hours, supernatant containing MBP fusion proteins were assayed by ELISA for both target binding and expression. Supernatants were added to 96-well Immulon 4HBX microtiter plates coated with anti-MBP polyclonal antibody (Abcam) at 0.0032 ug/ml. Followed by washing, bound MBP fusion proteins were detected either with CD123-Fc (Sino Biological)+anti-human Fc HRP (Abcam) to assess CD123 binding, or with anti-MBP-HRP (New England Biolabs) to assess MBP fusion protein expression.

In assay [2] the target is T1, CD123-Fc (Sino Biological). Briefly: ELISA of MBP fusions for binding to CD123 (FIG. 3). Here is the method:
as §1

Assay [3] addresses T1, CD123-Fc (Sino Biological). Briefly: BLI (Octet), CD123-Fc captured on AHC sensor, Adapter 500-0.69 nM in solution, global 1:1 fit, 25 C. Here is the method:
To assess the kinetics of CD123 binding, Adapter proteins comprising the D domains were analyzed using Bio-Layer Interferometry (BLI). Adapter proteins comprising a CD123-binding D domain and a P26(Q26-V229) AFP polypeptide (SEQ ID NO: 39) were generated through transient transfection of HEK-293 cells, followed by Ni-Sepharose Excel (Cytiva) and SEC chromatography. BLI experiments were performed using an Octet RED386 (Sartorius). All experiments were performed at 25° C. in kinetic buffer (PBS, 0.1% BSA, 0.02% tween 20) under constant 1000 rpm agitation. CD123-Fc (20 nM) was captured on an AHC sensor (Sartorius) for 250 seconds to a loading density of ˜0.8 nm. […] The surface was regenerated by 3 rounds of 10 seconds of 10 mM Glycine pH 1.5, followed by kinetic buffer. The data was analyzed using a global fit with a 1:1 interaction model from Sartorius Octet Analysis studio.

Assay [4] addresses T2, CD123 expressed on the surface of cells (OCI-AML2, MOLM13, NALM6-CD123+) (human, UniProt P26951 19-378).
T2 chain: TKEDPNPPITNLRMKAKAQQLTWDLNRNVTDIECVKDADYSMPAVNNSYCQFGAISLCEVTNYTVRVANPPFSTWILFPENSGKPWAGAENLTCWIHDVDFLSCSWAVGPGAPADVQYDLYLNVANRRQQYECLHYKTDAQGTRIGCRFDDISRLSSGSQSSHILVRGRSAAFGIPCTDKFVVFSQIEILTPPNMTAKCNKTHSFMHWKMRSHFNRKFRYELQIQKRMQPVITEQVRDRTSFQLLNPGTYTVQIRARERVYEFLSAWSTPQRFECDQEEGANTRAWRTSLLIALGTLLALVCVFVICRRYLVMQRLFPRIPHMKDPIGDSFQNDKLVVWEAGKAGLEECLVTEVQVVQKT
Briefly: flow cytometry.

B1: 1J1K D domain as MBP fusion (designed binder, not shown: large carriers; small tags and cut ends)
chain: MGSWDEFSRRLYAIEWRLYALGGSEAELAAFEKEIAAFESELQAYKGKGNPEVEKLREIAAVIRSNLQAYRHN
notes: also called 8W9C (G8S)
Regarding B1, in assay [1], the binding result was “binds”.

B2: 6Z5E D domain as MBP fusion (designed binder, not shown: large carriers; small tags and cut ends)
chain: MGSWDEFGRRLYAIEWRLYALGGSEAELAAFEKEIAAFESELQAYKGKGSPEVEKLREIAAVIRSNLQAYRHN
notes: also called 8W9C (N50S)
For the molecule B2, the binding result in assay [1] is recorded as “binds”.

B3: 4H2H D domain as MBP fusion (designed binder, not shown: large carriers; small tags and cut ends)
chain: MGSWDEFGRRLYAIEWRLYALGGSEAELAAFEKEIAAFESELQAYKGIGNPEVENLREIAAVIRSNLQAYRHN
notes: also called 8W9C (K48I, K55N)
As for B3, in assay [1], the binding result is on record as “binds”.

B4: 5S5W D domain as MBP fusion (designed binder, not shown: large carriers)
chain: MGSWSEFNMRLDAIYERLTALGGSEAELAAFEKEIAAFESELQAYKGKGNPEVEWLRHSAARIRLELQAYRHN
As to B4, the binding result in assay [2] is listed as “binds”.

B5: Adapter protein comprising the 6T1D D domain and a P26(Q26-V229) AFP polypeptide (designed binder)
chain: MGSWDEFGRRLYAIEWQLYALGGTEAELAAFEKEIAAFESELQAYKGKGNPEVEKLREIAAVIRENLQAYRHNQESQALAKRSCGLFQKLGEYYLQNAFLVAYTKKAPQLTSSELMAITRKMAATAATCCQLSEDKLLACGEGAADIIIGHLCIRHEMTPVNPGVGQCCTSSYANRRPCFSSLVVDETYVPPAFSDDKFIFHKDLCQAQGVALQTMKQEFLINLVKQKPQITEEQLEAVIADFSGLLEKCCQGQEQEVCFAEEGQKLISKTRAALGV
notes: also called parental D domain (6T1D); not shown: His tag (purified on Ni-Sepharose)
In assay [3], B5 registered a Kd of 7.6 nM, a dissociation rate constant (koff) of 0.00105 s⁻¹ and a kon of 139000 M⁻¹ s⁻¹. In assay [4], this molecule had an EC50 of 2.61 µg/mL.

B6: Adapter protein comprising the 8W9C D domain and a P26(Q26-V229) AFP polypeptide (designed binder)
chain: MGSWDEFGRRLYAIEWRLYALGGSEAELAAFEKEIAAFESELQAYKGKGNPEVEKLREIAAVIRSNLQAYRHNQESQALAKRSCGLFQKLGEYYLQNAFLVAYTKKAPQLTSSELMAITRKMAATAATCCQLSEDKLLACGEGAADIIIGHLCIRHEMTPVNPGVGQCCTSSYANRRPCFSSLVVDETYVPPAFSDDKFIFHKDLCQAQGVALQTMKQEFLINLVKQKPQITEEQLEAVIADFSGLLEKCCQGQEQEVCFAEEGQKLISKTRAALGV
notes: also called wild type; not shown: His tag (purified on Ni-Sepharose)
In assay [3], B6 gave a dissociation constant Kd of 5.2 nM, a koff of 0.000924 s⁻¹ and a kon of 177000 M⁻¹ s⁻¹.

B7: Adapter protein comprising the 6K4C D domain and a P26(Q26-V229) AFP polypeptide (designed binder)
chain: MGSWAEFGRRLYAIEWQLYALGGTEAELAAFEKEIAAFESELQAYKGKGNPEVEKLREIAAVIRENLQAYRHNQESQALAKRSCGLFQKLGEYYLQNAFLVAYTKKAPQLTSSELMAITRKMAATAATCCQLSEDKLLACGEGAADIIIGHLCIRHEMTPVNPGVGQCCTSSYANRRPCFSSLVVDETYVPPAFSDDKFIFHKDLCQAQGVALQTMKQEFLINLVKQKPQITEEQLEAVIADFSGLLEKCCQGQEQEVCFAEEGQKLISKTRAALGV
notes: also called 6T1D(D5A); not shown: His tag (purified on Ni-Sepharose)
Regarding B7, in assay [3], binding was put at a Kd of 18 nM, the dissociation rate constant (koff) is 0.00353 s⁻¹ and the on-rate (kon) is 197000 M⁻¹ s⁻¹.

B8: Adapter protein comprising the 4R8U D domain and a P26(Q26-V229) AFP polypeptide (designed binder)
chain: MGSWDEFGRRLYAIEWQLYALGGTEAELAAFEKEIAAFESELQAYKGEGSPEVEKLREIAAVIRENLQAYRHNQESQALAKRSCGLFQKLGEYYLQNAFLVAYTKKAPQLTSSELMAITRKMAATAATCCQLSEDKLLACGEGAADIIIGHLCIRHEMTPVNPGVGQCCTSSYANRRPCFSSLVVDETYVPPAFSDDKFIFHKDLCQAQGVALQTMKQEFLINLVKQKPQITEEQLEAVIADFSGLLEKCCQGQEQEVCFAEEGQKLISKTRAALGV
notes: also called 6T1D(K48E, N50S); not shown: His tag (purified on Ni-Sepharose)
For the molecule B8, in assay [3], the Kd worked out at 1.2 nM, the dissociation rate constant (koff) worked out at 0.000304 s⁻¹ and the kon came to 254000 M⁻¹ s⁻¹. This molecule gave an EC50 in assay [4] of 1.9 µg/mL.

B9: Adapter protein comprising the 4I0K D domain and a P26(Q26-V229) AFP polypeptide (designed binder)
chain: MGSWDEFGRRLYAIESQLYALGGTEAELAAFEKEIAAFESELQAYKGKGNPEVEKLREIAAVIRENLQAYRHNQESQALAKRSCGLFQKLGEYYLQNAFLVAYTKKAPQLTSSELMAITRKMAATAATCCQLSEDKLLACGEGAADIIIGHLCIRHEMTPVNPGVGQCCTSSYANRRPCFSSLVVDETYVPPAFSDDKFIFHKDLCQAQGVALQTMKQEFLINLVKQKPQITEEQLEAVIADFSGLLEKCCQGQEQEVCFAEEGQKLISKTRAALGV
notes: also called 6T1D(W16S); not shown: His tag (purified on Ni-Sepharose)
On to B9, for which, in assay [3], the Kd came out at 14 nM, the koff was determined as 0.00252 s⁻¹ and the on-rate (kon) worked out at 177000 M⁻¹ s⁻¹. Besides, the EC50 in assay [4] was found to be 4.26 µg/mL.

B10: Adapter protein comprising the 3F4N D domain and a P26(Q26-V229) AFP polypeptide (designed binder)
chain: MGSWDEFGRRLYAIEWQLYALGGTEAELAAFEKEIAAFESELQAYKGKGSPEVEKLREIAAVIRENLQAYRHNQESQALAKRSCGLFQKLGEYYLQNAFLVAYTKKAPQLTSSELMAITRKMAATAATCCQLSEDKLLACGEGAADIIIGHLCIRHEMTPVNPGVGQCCTSSYANRRPCFSSLVVDETYVPPAFSDDKFIFHKDLCQAQGVALQTMKQEFLINLVKQKPQITEEQLEAVIADFSGLLEKCCQGQEQEVCFAEEGQKLISKTRAALGV
notes: also called 6T1D(N50S); not shown: His tag (purified on Ni-Sepharose)
For B10, in assay [3], the dissociation constant Kd stood at 1.3 nM, the koff was found to be 0.000275 s⁻¹ and the kon is 213000 M⁻¹ s⁻¹. In assay [4], this molecule had a 50% effective concentration (EC50) of 1.83 µg/mL.

B11: Adapter protein comprising the 1F9I D domain and a P26(Q26-V229) AFP polypeptide (designed binder)
chain: MGSWDEFGRRLYAIEWQLYAQGGTEAELAAFEKEIAAFESELQAYKGKGNPEVEKLRELAAVIRENLQAYRHNQESQALAKRSCGLFQKLGEYYLQNAFLVAYTKKAPQLTSSELMAITRKMAATAATCCQLSEDKLLACGEGAADIIIGHLCIRHEMTPVNPGVGQCCTSSYANRRPCFSSLVVDETYVPPAFSDDKFIFHKDLCQAQGVALQTMKQEFLINLVKQKPQITEEQLEAVIADFSGLLEKCCQGQEQEVCFAEEGQKLISKTRAALGV
notes: also called 6T1D(L21Q, I59L); not shown: His tag (purified on Ni-Sepharose)
Take B11: in assay [3], the Kd was determined as 7.6 nM, the koff amounted to 0.000646 s⁻¹ and the kon worked out at 85200 M⁻¹ s⁻¹.

B12: Adapter protein comprising the 8O3S D domain and a P26(Q26-V229) AFP polypeptide (designed binder)
chain: MGSWDEFGRRLYAIETQLYALGGTEAELAAFEKEIAAFESELQAYKGKGNPEVEKLREIAAVIRENLQAYRHNQESQALAKRSCGLFQKLGEYYLQNAFLVAYTKKAPQLTSSELMAITRKMAATAATCCQLSEDKLLACGEGAADIIIGHLCIRHEMTPVNPGVGQCCTSSYANRRPCFSSLVVDETYVPPAFSDDKFIFHKDLCQAQGVALQTMKQEFLINLVKQKPQITEEQLEAVIADFSGLLEKCCQGQEQEVCFAEEGQKLISKTRAALGV
notes: also called 6T1D(W16T); not shown: His tag (purified on Ni-Sepharose)
With B12, in assay [3], the equilibrium dissociation constant (Kd) is 28 nM, the koff came to 0.00665 s⁻¹ and the kon came out at 235000 M⁻¹ s⁻¹. In assay [4], this molecule came in with an EC50 of 4.62 µg/mL.

B13: Adapter protein comprising the 0C8S D domain and a P26(Q26-V229) AFP polypeptide (designed binder)
chain: MGSWDEFSRRLYAIEWQLYALGGTEAELAAFEKEIAAFESELQAYKGEGSPEVEKLRELAAVIRENLQAYRHNQESQALAKRSCGLFQKLGEYYLQNAFLVAYTKKAPQLTSSELMAITRKMAATAATCCQLSEDKLLACGEGAADIIIGHLCIRHEMTPVNPGVGQCCTSSYANRRPCFSSLVVDETYVPPAFSDDKFIFHKDLCQAQGVALQTMKQEFLINLVKQKPQITEEQLEAVIADFSGLLEKCCQGQEQEVCFAEEGQKLISKTRAALGV
notes: also called 0085; 6T1D(G8S, K48E, N50S, I59L); not shown: His tag (purified on Ni-Sepharose)
In assay [3], B13 came in with a Kd of 1 nM, a dissociation rate constant (koff) of 0.000151 s⁻¹ and an on-rate constant (kon) of 146000 M⁻¹ s⁻¹. The EC50 in assay [4] was found to be 2.44 µg/mL.

The values above are taken from patent US20240124605A1 (published 2024).
